Laboratory results taken from patent publication US6534281.

Columns and labels:
human proinsulin (human) [1] = target: human proinsulin (human) (UniProt P01308); assay: sandwich immunoassay, two-step, against C-peptide calibration; proinsulin 200 ng/ml; 9101 on particles, labeled antibody 9103
human C-peptide (human) [2] = assay: ELISA on immobilized C-peptide; labeled antibody 0.1 ug/ml, free C-peptide 0.1 ug/ml
human proinsulin (human) [3] = target: human proinsulin (human) (UniProt P01308); assay: sandwich immunoassay, two-step, against C-peptide calibration; proinsulin 50 ng/ml; 9101 on particles, labeled antibody CPT-3-F11
human C-peptide (human) [4] = assay: sandwich immunoassay, one-step; 9101 on particles, labeled antibody CPT-3F-11
human proinsulin (human) [5] = target: human proinsulin (human) (UniProt P01308); assay: sandwich immunoassay, two-step, against C-peptide calibration; proinsulin 50 ng/ml; 9101 on particles, labeled antibody 9103
human C-peptide (human) [6] = assay: ELISA on immobilized C-peptide; labeled antibody 1.0 ug/ml, free C-peptide 0.1 ug/ml
human C-peptide (human) [7] = assay: ELISA on immobilized C-peptide; labeled antibody 10 ug/ml, free C-peptide 10 ug/ml
human proinsulin (human) [8] = target: human proinsulin (human) (UniProt P01308); assay: sandwich immunoassay, one-step, against C-peptide calibration; proinsulin 200 ng/ml; 9101 on particles, labeled antibody 9103
human C-peptide (human) [9] = assay: ELISA on immobilized C-peptide; labeled antibody 10 ug/ml, free C-peptide 0.1 ug/ml
human C-peptide (human) [10] = assay: ELISA on immobilized C-peptide; labeled antibody 1.0 ug/ml, free C-peptide 1.0 ug/ml
human proinsulin (human) [11] = target: human proinsulin (human) (UniProt P01308); assay: sandwich immunoassay, two-step, against C-peptide calibration; proinsulin 400 ng/ml; 9101 on particles, labeled antibody CPT-3-F11
human proinsulin (human) [12] = target: human proinsulin (human) (UniProt P01308); assay: sandwich immunoassay, one-step, against C-peptide calibration; proinsulin 400 ng/ml; 9101 on particles, labeled antibody 9103
human proinsulin (human) [13] = target: human proinsulin (human) (UniProt P01308); assay: sandwich immunoassay, one-step, against C-peptide calibration; proinsulin 50 ng/ml; 9101 on particles, labeled antibody 9103
human C-peptide (human) [14] = assay: ELISA on immobilized C-peptide; labeled antibody 1.0 ug/ml, free C-peptide 0 ug/ml (reference)
human C-peptide (human) [15] = assay: ELISA on immobilized C-peptide; labeled antibody 0.0 ug/ml (blank), free C-peptide 0.1 ug/ml
human C-peptide (human) [16] = assay: ELISA on immobilized C-peptide; labeled antibody 10 ug/ml, free C-peptide 1.0 ug/ml
human C-peptide (human) [17] = assay: ELISA on immobilized C-peptide; labeled antibody 0.1 ug/ml, free C-peptide 0 ug/ml (reference)
human C-peptide (human) [18] = assay: ELISA on immobilized C-peptide; labeled antibody 0.0 ug/ml (blank), free C-peptide 1.0 ug/ml
human C-peptide (human) [19] = assay: sandwich immunoassay, one-step; 9101 on particles, labeled antibody 9103
human C-peptide (human) [20] = assay: ELISA on immobilized C-peptide; labeled antibody 0.1 ug/ml, free C-peptide 10 ug/ml
human proinsulin (human) [21] = target: human proinsulin (human) (UniProt P01308); assay: sandwich immunoassay, two-step, against C-peptide calibration; proinsulin 400 ng/ml; 9101 on particles, labeled antibody 9103
human proinsulin (human) [22] = target: human proinsulin (human) (UniProt P01308); assay: sandwich immunoassay, one-step, against C-peptide calibration; proinsulin 400 ng/ml; 9101 on particles, labeled antibody CPT-3-F11
human C-peptide (human) [23] = assay: sandwich immunoassay, two-step; 9101 on particles, labeled antibody CPT-3F-11
human proinsulin (human) [24] = target: human proinsulin (human) (UniProt P01308); assay: sandwich immunoassay, one-step, against C-peptide calibration; proinsulin 50 ng/ml; 9101 on particles, labeled antibody CPT-3-F11
human C-peptide (human) [25] = assay: ELISA on immobilized C-peptide; labeled antibody 0.1 ug/ml, free C-peptide 1.0 ug/ml
human C-peptide (human) [26] = assay: ELISA on immobilized C-peptide; labeled antibody 1.0 ug/ml, free C-peptide 0 ug/ml
[27] = target: modified C-peptide (human C-peptide having Arg-Arg bound to its N-terminal and Lys-Arg bound to its C-terminal) (human); assay: sandwich immunoassay, two-step, against C-peptide calibration; modified C-peptide 5 ng/ml; 9101 on particles, labeled antibody CPT-3F-11
human C-peptide (human) [28] = assay: ELISA on immobilized C-peptide; labeled antibody 0.0 ug/ml (blank), free C-peptide 10 ug/ml
human C-peptide (human) [29] = assay: ELISA on immobilized C-peptide; labeled antibody 10 ug/ml, free C-peptide 0 ug/ml
[30] = target: modified C-peptide (human C-peptide having Arg-Arg bound to its N-terminal and Lys-Arg bound to its C-terminal) (human); assay: sandwich immunoassay, one-step, against C-peptide calibration; modified C-peptide 5 ng/ml; 9101 on particles, labeled antibody 9103
human C-peptide (human) [31] = assay: ELISA on immobilized C-peptide; labeled antibody 10 ug/ml, free C-peptide 0 ug/ml (reference)
[32] = target: modified C-peptide (human C-peptide having Arg-Arg bound to its N-terminal and Lys-Arg bound to its C-terminal) (human); assay: sandwich immunoassay, two-step, against C-peptide calibration; modified C-peptide 5 ng/ml; 9101 on particles, labeled antibody 9103
human C-peptide (human) [33] = assay: ELISA on immobilized C-peptide; labeled antibody 1.0 ug/ml, free C-peptide 10 ug/ml
human proinsulin (human) [34] = target: human proinsulin (human) (UniProt P01308); assay: sandwich immunoassay, two-step, against C-peptide calibration; proinsulin 200 ng/ml; 9101 on particles, labeled antibody CPT-3-F11
human proinsulin (human) [35] = target: human proinsulin (human) (UniProt P01308); assay: sandwich immunoassay, one-step, against C-peptide calibration; proinsulin 200 ng/ml; 9101 on particles, labeled antibody CPT-3-F11
human C-peptide (human) [36] = assay: sandwich immunoassay, two-step; 9101 on particles, labeled antibody 9103
[37] = target: modified C-peptide (human C-peptide having Arg-Arg bound to its N-terminal and Lys-Arg bound to its C-terminal) (human); assay: sandwich immunoassay, one-step, against C-peptide calibration; modified C-peptide 5 ng/ml; 9101 on particles, labeled antibody CPT-3F-11
human C-peptide (human) [38] = assay: ELISA on immobilized C-peptide; labeled antibody 0.0 ug/ml (blank), free C-peptide 0 ug/ml
human C-peptide (human) [39] = assay: ELISA on immobilized C-peptide; labeled antibody 0.1 ug/ml, free C-peptide 0 ug/ml

Sequence of UniProt P01308 (P01308 25-110): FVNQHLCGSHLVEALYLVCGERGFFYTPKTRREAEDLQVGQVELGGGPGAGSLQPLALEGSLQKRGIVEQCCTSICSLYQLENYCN
Sequence of human C-peptide (human) (peptide, as listed by the source): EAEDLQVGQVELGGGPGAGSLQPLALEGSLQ
Sequence of modified C-peptide (human C-peptide having Arg-Arg bound to its N-terminal and Lys-Arg bound to its C-terminal) (human) (peptide, as listed by the source): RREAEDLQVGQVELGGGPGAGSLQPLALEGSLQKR

- Cross-reactivity (%) to Human Proinsulin (human proinsulin (human) [1]): 9.8%
- Absorbance (absorbance at 405 nm) (human C-peptide (human) [2]): 0.141
- Binding Ratio (human C-peptide (human) [2]): 11.1%
- Cross-reactivity (%) to Human Proinsulin (human proinsulin (human) [3]): 10.7%
- 2S/N value (human C-peptide (human) [4]): 0.008 ng/mL
- Cross-reactivity (%) to Human Proinsulin (human proinsulin (human) [5]): 12.8%
- Absorbance (absorbance at 405 nm) (human C-peptide (human) [6]): 0.298
- Binding Ratio (human C-peptide (human) [6]): 17.6%
- Absorbance (absorbance at 405 nm) (human C-peptide (human) [7]): 0.001
- Binding Ratio (human C-peptide (human) [7]): 0.1%
- Cross-reactivity (%) to Human Proinsulin (human proinsulin (human) [8]): 18.1%
- Absorbance (absorbance at 405 nm) (human C-peptide (human) [9]): 0.331
- Binding Ratio (human C-peptide (human) [9]): 17.1%
- Absorbance (absorbance at 405 nm) (human C-peptide (human) [10]): 0.042
- Binding Ratio (human C-peptide (human) [10]): 2.5%
- Cross-reactivity (%) to Human Proinsulin (human proinsulin (human) [11]): 12.1%
- Cross-reactivity (%) to Human Proinsulin (human proinsulin (human) [12]): > 15%
- Cross-reactivity (%) to Human Proinsulin (human proinsulin (human) [13]): 19.7%
- Binding Ratio (human C-peptide (human) [14]): 100%
- Absorbance (absorbance at 405 nm) (human C-peptide (human) [15]): 0
- Binding Ratio (human C-peptide (human) [15]): 0%
- Absorbance (absorbance at 405 nm) (human C-peptide (human) [16]): 0.051
- Binding Ratio (human C-peptide (human) [16]): 2.6%
- Binding Ratio (human C-peptide (human) [17]): 100%
- Absorbance (absorbance at 405 nm) (human C-peptide (human) [18]): 0
- Binding Ratio (human C-peptide (human) [18]): 0%
- 2S/N value (human C-peptide (human) [19]): 0.222 ng/mL
- Absorbance (absorbance at 405 nm) (human C-peptide (human) [20]): 0
- Binding Ratio (human C-peptide (human) [20]): 0%
- Cross-reactivity (%) to Human Proinsulin (human proinsulin (human) [21]): 8.4%
- Cross-reactivity (%) to Human Proinsulin (human proinsulin (human) [22]): 11.7%
- 2S/N value (human C-peptide (human) [23]): 0.009 ng/mL
- Cross-reactivity (%) to Human Proinsulin (human proinsulin (human) [24]): 19.6%
- Absorbance (absorbance at 405 nm) (human C-peptide (human) [25]): 0.013
- Binding Ratio (human C-peptide (human) [25]): 1%
- Absorbance (absorbance at 405 nm) (human C-peptide (human) [26]): 1.69
- Cross-reactivity (%) to Modified C-peptide [27]: 1.7%
- Absorbance (absorbance at 405 nm) (human C-peptide (human) [28]): 0
- Binding Ratio (human C-peptide (human) [28]): 0%
- Absorbance (absorbance at 405 nm) (human C-peptide (human) [29]): 1.98
- Cross-reactivity (%) to Modified C-peptide [30]: < 0.5%
- Binding Ratio (human C-peptide (human) [31]): 100%
- Cross-reactivity (%) to Modified C-peptide [32]: < 0.7%
- Absorbance (absorbance at 405 nm) (human C-peptide (human) [33]): 0.001
- Binding Ratio (human C-peptide (human) [33]): 0%
- Cross-reactivity (%) to Human Proinsulin (human proinsulin (human) [34]): 11.8%
- Cross-reactivity (%) to Human Proinsulin (human proinsulin (human) [35]): 17.8%
- 2S/N value (human C-peptide (human) [36]): 0.11 ng/mL
- Cross-reactivity (%) to Modified C-peptide [37]: 9.3%
- Absorbance (absorbance at 405 nm) (human C-peptide (human) [38]): 0
- Binding Ratio (human C-peptide (human) [38]): 0%
- Absorbance (absorbance at 405 nm) (human C-peptide (human) [39]): 1.26
Substance: anti-human C-peptide monoclonal antibody 9101 (Medix Biochemica)
